Assay [1] concerns the target long Homer proteins (Homer1b/c, Homer2, and Homer3, collectively referred to as Homer) (mouse (endogenous in hippocampal neurons)).
The target is the same in assay [2]. The source holds these as a separate data set.
Assay [3] has the same target. The source holds these as a separate data set.

Turning to “Metabotropic glutamate receptor subtype 5 (mGluR5) (from UniProt Q3UVX5 19-1203)”, in assay [1], the change of the mobile fraction of synaptic mGluR5 in WT neurons, TAT-mGluR5ct against TAT-mGluR5mu worked out at 12.6%. Also, in assay [2], the EPSCs (NMDA) amplitude (% of baseline) after DHPG (mGluR-LTD) in WT slices treated with TAT-mGluR5ct; LTD abolished is 101%; the EPSCs (NMDA) amplitude (% of baseline) after DHPG (mGluR-LTD) in WT slices treated with the control peptide TAT-mGluR5mu; LTD not abolished worked out at 56.6%; the EPSCs (NMDA) amplitude in CA1 pyramidal neurons of WT slices treated with TAT-mGluR5ct (5 µM, 4 h); lower than untreated WT turned out to be 88.1 pA; the EPSCs (NMDA) amplitude in CA1 pyramidal neurons of WT slices treated with the control peptide TAT-mGluR5mu (5 µM, 4 h); not lower than untreated WT was determined as 126 pA. Further, in assay [2], the NMDA/AMPA ratio in CA1 pyramidal neurons of WT slices treated with TAT-mGluR5ct; reduced was found to be 0.88. In assay [3], this substance registered a co-localized mGluR5/GluN1/Homer1-positive signals as percentage of synaptic GluN1 signal, WT neurons treated with TAT-mGluR5ct (5 µM, 1 h); increased of 71.8% and a co-localized mGluR5/GluN1/Homer1-positive signals as percentage of synaptic GluN1 signal, WT neurons treated with the control peptide TAT-mGluR5mu (5 µM, 1 h); no effect of 61.2%.

Source of the values: publication PMC5653653.
